The values below come from patent EP1736482A1.

Test [1] has as its target 4-1BB on CD3-stimulated human T lymphocytes (PBMC) (human) (UniProt Q07011). The test can be described thus: cell-based or functional assay.
Test [2] shares this target. The experiment in a line: flow cytometry on CD3-stimulated PBMC, ligand at 10 µg/ml revealed by PE-conjugated streptavidine. Background: In flow cytometry, cells or beads pass a laser one at a time.
Test [3] deals with recombinant human 4-1BB-Fc chimera (R&D Systems) (human) (UniProt Q07011). The test can be described thus: SPR (BIAcore 2000), 4-1BB-Fc coupled to CM5 chip, ligand in flow, 25°C. On the technique in general: Surface plasmon resonance follows binding to a sensor surface in real time, without labels.
Test [4] has as its target 4-1BB on CD3-stimulated human T lymphocytes (PBMC) (human) (UniProt Q07011). The experiment in a line: flow cytometry on CD3-stimulated PBMC, PE-conjugated antibody.

Chain of recombinant human 4-1BB-Fc chimera (R&D Systems) (human) (Q07011 24-186, change not shown): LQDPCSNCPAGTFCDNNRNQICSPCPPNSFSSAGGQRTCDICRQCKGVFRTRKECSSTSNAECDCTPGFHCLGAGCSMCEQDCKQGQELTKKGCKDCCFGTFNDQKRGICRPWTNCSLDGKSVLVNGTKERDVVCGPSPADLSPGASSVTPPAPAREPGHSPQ
Chain of 4-1BB on CD3-stimulated human T lymphocytes (PBMC) (human) (Q07011 24-255): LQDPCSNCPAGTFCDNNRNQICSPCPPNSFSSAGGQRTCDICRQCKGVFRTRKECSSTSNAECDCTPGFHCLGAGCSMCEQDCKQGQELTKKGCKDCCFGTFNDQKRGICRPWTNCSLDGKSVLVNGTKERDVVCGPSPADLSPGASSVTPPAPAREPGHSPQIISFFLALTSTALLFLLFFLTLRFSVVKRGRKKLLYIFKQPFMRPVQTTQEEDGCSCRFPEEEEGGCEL

“WT AviTag-4-1BBL (trimeric recombinant human 4-1BBL extracellular domain with N-terminal AviTag, produced in E. coli and refolded) (from UniProt P41273 50-254) (ligand)” returned an inhibition of the proliferation of CD3-stimulated PBMC (tritiated thymidine incorporation) in test [1] of 70%. Further, in test [2], the percentage of 4-1BB positive activated T cells stained worked out at 60%.
With “C51S AviTag-4-1BBL (from UniProt P41273 50-254) (ligand)”, in test [3], the dissociation constant Kd was found to be 2.3 nM, the off-rate (koff) turned out to be 0.00052 s⁻¹ and the kon turned out to be 230000 M⁻¹ s⁻¹.
In the case of “PE-conjugated anti 4-1BB mAb (clone 4B4-1, BD Biosciences) (antibody)”, the percentage of 4-1BB positive activated T cells stained in test [4] is 64%.

The term Kd denotes the constant that tells how readily two partners part at equilibrium. By koff is commonly meant the first-order rate constant of dissociation. A word on the kon: it is a measure of how fast the partners come together.
